This passage reports partition coefficient of G-actin into condensates, k actin (Cin/Cout) results from doi:10.1101/2025.10.09.681077.

What all share (experiment): partitioning into condensates
Assay [1] concerns the target PLPPR3 intracellular domain (ICD), purification construct HA-M1-PLPPR3 ICD-His (UniProt Q7TPB0).
For assay [2], the target named is PLPPR3 ICDΔ345 (UniProt Q7TPB0).
In assay [3] the target is PLPPR3 ICDΔ399 (UniProt Q7TPB0).
For assay [4], the target named is PLPPR3 ICDΔ345/Δ399 (double mutant) (UniProt Q7TPB0).

“alpha-actin (from UniProt P68032 1-377) (natural protein)”: the partition coefficient of G-actin into condensates, k actin (Cin/Cout) turned out to be 15.4 in assay [1], 15.2 in assay [2], 11.8 in assay [3] and 11.8 in assay [4].
